In IntAct's records for PubMed 34075876:

B1: Protein TOPLESS (Arabidopsis thaliana (Mouse-ear cress)), Q94AI7 (parent)
chain: MSSLSRELVFLILQFLDEEKFKETVHKLEQESGFFFNMKYFEDEVHNGNWDEVEKYLSGFTKVDDNRYSMKIFFEIRKQKYLEALDKHDRPKAVDILVKDLKVFSTFNEELFKEITQLLTLENFRENEQLSKYGDTKSARAIMLVELKKLIEANPLFRDKLQFPTLRNSRLRTLINQSLNWQHQLCKNPRPNPDIKTLFVDHSCGPPNGARAPSPVNNPLLGGIPKAGGFPPLGAHGPFQPTASPVPTPLAGWMSSPSSVPHPAVSAGAIALGGPSIPAALKHPRTPPTNASLDYPSADSEHVSKRTRPMGISDEVNLGVNMLPMSFSGQAHGHSPAFKAPDDLPKTVARTLSQGSSPMSMDFHPIKQTLLLVGTNVGDIGLWEVGSRERLVQKTFKVWDLSKCSMPLQAALVKEPVVSVNRVIWSPDGSLFGVAYSRHIVQLYSYHGGEDMRQHLEIDAHVGGVNDISFSTPNKQLCVITCGDDKTIKVWDAATGVKRHTFEGHEAPVYSVCPHYKENIQFIFSTALDGKIKAWLYDNMGSRVDYDAPGRWCTTMAYSADGTRLFSCGTSKDGESFIVEWNESEGAVKRTYQGFHKRSLGVVQFDTTKNRYLAAGDDFSIKFWDMDAVQLLTAIDGDGGLQASPRIRFNKEGSLLAVSGNENVIKIMANSDGLRLLHTFENISSESSKPAINSIAAAAAAAATSAGHADRSANVVSIQGMNGDSRNMVDVKPVITEESNDKSKIWKLTEVSEPSQCRSLRLPENLRVAKISRLIFTNSGNAILALASNAIHLLWKWQRNERNATGKATASLPPQQWQPASGILMTNDVAETNPEEAVPCFALSKNDSYVMSASGGKISLFNMMTFKTMATFMPPPPAATFLAFHPQDNNIIAIGMDDSTIQIYNVRVDEVKSKLKGHSKRITGLAFSNVLNVLVSSGADAQLCVWNTDGWEKQRSKVLPLPQGRPNSAPSDTRVQFHQDQAHFLVVHETQLAIYETTKLECMKQWAVRESLAPITHATFSCDSQLVYASFMDATVCVFSSANLRLRCRVNPSAYLPASLSNSNVHPLVIAAHPQEPNMFAVGLSDGGVHIFEPLESEGKWGVAPPAENGSASGAPTAPSVGASASDQPQR
partner: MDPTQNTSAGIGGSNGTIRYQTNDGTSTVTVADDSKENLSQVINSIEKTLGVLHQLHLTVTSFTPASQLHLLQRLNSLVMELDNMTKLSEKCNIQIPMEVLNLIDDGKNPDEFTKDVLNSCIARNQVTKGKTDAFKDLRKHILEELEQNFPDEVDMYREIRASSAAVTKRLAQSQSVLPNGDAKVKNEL
B2: Protein TOPLESS (Arabidopsis thaliana (Mouse-ear cress)), Q94AI7 (parent)
chain: B1 chain
partner: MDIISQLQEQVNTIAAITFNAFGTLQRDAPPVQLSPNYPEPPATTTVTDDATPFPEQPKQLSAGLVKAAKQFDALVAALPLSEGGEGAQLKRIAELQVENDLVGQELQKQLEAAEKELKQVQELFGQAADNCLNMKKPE

Variants of: B1
Settings: with md10b_arath MED10B

effect of a mutation on the interaction | Variant
decreasing interaction strength | V145A;E146A;K148A;K149A

Variants of: B2
Settings: with med21_arath MED21, C0LU16

Variant | effect of a mutation on the interaction
E146A | decreasing interaction strength
V145A | decreasing interaction strength

More lines, now with the values ahead:

effect of a mutation on the interaction | Variant
decreasing interaction strength | K149A
decreasing interaction strength | K148A

Variants of: B2
Settings: with med21_arath MED21, C0LU16
Remark: another data set of the same source

effect of a mutation on the interaction | Variant
disrupting interaction strength | V145A;E146A;K148A;K149A
